Target: T1, 재조합 인간 TIGIT 단백질 (Acro Biosystems) (human, UniProt Q495A1 22-141)
T1 construct: Bought recombinant protein; also called recombinant human TIGIT; TIGIT 항원
T1 sequence: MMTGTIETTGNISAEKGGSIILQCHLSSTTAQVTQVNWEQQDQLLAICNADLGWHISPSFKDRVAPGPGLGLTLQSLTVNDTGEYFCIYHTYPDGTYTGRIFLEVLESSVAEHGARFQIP
Experiment: SPR, Biacore T200 multi-cycle kinetics, 25C; antibody captured on anti-human IgG CM5 chip, recombinant human TIGIT as analyte; 1:1 model

Kd: 0.884 nM
koff: 0.00158 s⁻¹
kon: 1.78e+06 M⁻¹ s⁻¹
B1: 항-TIGIT 항체 7A6 (7A6_VH3/Vk5) (antibody, human IgG1, kappa, V domains shown)
VH: QVQLQESGPGLVKPSQTLSLTCTVTGYSITSDYAWNWIRQPPGKGLEWMGYISYSGSARYNPSLKSRVTISRDTSKNQFSLKLSSVTAEDTATYYCARKGYPAYFAYWGQGTLVTVSS
VL: DIQMTQSPSSLSASVGDRVSITCKASQDVSTAVAWYQQKPGQAPRLLIYSASYRYTGVPDRFSGSGSGTDFTLTISSLQPEDFATYYCQHHYSTPYTFGQGTKLEIKR
notes: Parental IgG1/kappa antibody without RS15; also called 7A6 VH3/Vκ5; Parental Ab (7A6)
